Tested on: Escherichia coli TOP10
Experiment: shrunken log2 fold change of peptide-encoding DNA abundance (4.5 h post-induction vs induction); higher = less antimicrobial activity (less host growth inhibition)
Details: time post-induction: 4.5 h; library: site-saturation at positions 5, 18, 19, 20
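Also: peptides expressed intracellularly from a pBAD plasmid library in pooled LB shake-flask culture, induced with 0.3% L-arabinose, DNA abundance read by NGS, three biological replicates, DESeq2 with apeglm shrinkage.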

Row | Sequence | shrunken log2 fold change
1 | RRIRIRPPRLPRPRPRPNMQPRP | -0.29
2 | RRIRIRPPRLPRPRPRPNMTPRP | -0.804
3 | RRIRIRPPRLPRPRPRPNNVPRP | -0.7
4 | RRIRIRPPRLPRPRPRPNQMPRP | -0.173
5 | RRIRIRPPRLPRPRPRPNRMPRP | -0.0394
6 | RRIRIRPPRLPRPRPRPNSDPRP | -0.267
7 | RRIRIRPPRLPRPRPRPNSTPRP | -0.722
8 | RRIRIRPPRLPRPRPRPNTKPRP | -0.202
9 | RRIRIRPPRLPRPRPRPNWIPRP | -0.565
10 | RRIRIRPPRLPRPRPRPNWKPRP | -0.00224
11 | RRIRIRPPRLPRPRPRPNWMPRP | -0.341
12 | RRIRIRPPRLPRPRPRPNWQPRP | -0.0358
13 | RRIRIRPPRLPRPRPRPNYNPRP | -1.12
14 | RRIRIRPPRLPRPRPRPNYTPRP | -0.516
15 | RRIRIRPPRLPRPRPRPPAHPRP | 0.139
16 | RRIRIRPPRLPRPRPRPPAVPRP | 0.279
17 | RRIRIRPPRLPRPRPRPPAWPRP | 0.146
18 | RRIRIRPPRLPRPRPRPPCHPRP | -0.463
19 | RRIRIRPPRLPRPRPRPPDNPRP | -0.368
20 | RRIRIRPPRLPRPRPRPPDPPRP | 0.243
21 | RRIRIRPPRLPRPRPRPPEGPRP | 0.115
22 | RRIRIRPPRLPRPRPRPPGVPRP | 0.408
23 | RRIRIRPPRLPRPRPRPPHNPRP | -0.521
24 | RRIRIRPPRLPRPRPRPPHSPRP | -0.164
25 | RRIRIRPPRLPRPRPRPPIGPRP | -0.0282

Row | Sequence | shrunken log2 fold change
26 | RRIRIRPPRLPRPRPRPPIQPRP | -0.468
27 | RRIRIRPPRLPRPRPRPPKNPRP | -0.159
28 | RRIRIRPPRLPRPRPRPPMYPRP | -0.849
29 | RRIRIRPPRLPRPRPRPPPCPRP | 0.0616
30 | RRIRIRPPRLPRPRPRPPQYPRP | -0.226
31 | RRIRIRPPRLPRPRPRPPRFPRP | 0.0593
32 | RRIRIRPPRLPRPRPRPPSFPRP | -0.213
33 | RRIRIRPPRLPRPRPRPPTKPRP | 0.126
34 | RRIRIRPPRLPRPRPRPPTMPRP | -0.0339
35 | RRIRIRPPRLPRPRPRPPTPPRP | 0.238
36 | RRIRIRPPRLPRPRPRPPTSPRP | -0.172
37 | RRIRIRPPRLPRPRPRPPVDPRP | -0.111
38 | RRIRIRPPRLPRPRPRPPVRPRP | 0.172
39 | RRIRIRPPRLPRPRPRPPWLPRP | 0.412
40 | RRIRIRPPRLPRPRPRPPYYPRP | -0.827
41 | RRIRIRPPRLPRPRPRPQCPPRP | -0.472
42 | RRIRIRPPRLPRPRPRPQDKPRP | -0.855
43 | RRIRIRPPRLPRPRPRPQEDPRP | -0.0165
44 | RRIRIRPPRLPRPRPRPQFTPRP | -0.986
45 | RRIRIRPPRLPRPRPRPQGKPRP | -0.385
46 | RRIRIRPPRLPRPRPRPQGSPRP | -0.0316
47 | RRIRIRPPRLPRPRPRPQHNPRP | -0.735
48 | RRIRIRPPRLPRPRPRPQIDPRP | -2.56
49 | RRIRIRPPRLPRPRPRPQIIPRP | -0.213
50 | RRIRIRPPRLPRPRPRPQLDPRP | -0.138

Row | Sequence | shrunken log2 fold change
51 | RRIRIRPPRLPRPRPRPQLVPRP | -0.163
52 | RRIRIRPPRLPRPRPRPQMCPRP | 0.0648
53 | RRIRIRPPRLPRPRPRPQMDPRP | -0.258
54 | RRIRIRPPRLPRPRPRPQMIPRP | -0.241
55 | RRIRIRPPRLPRPRPRPQMQPRP | -0.325
56 | RRIRIRPPRLPRPRPRPQMTPRP | -0.733
57 | RRIRIRPPRLPRPRPRPQNKPRP | -0.668
58 | RRIRIRPPRLPRPRPRPQNWPRP | -0.517
59 | RRIRIRPPRLPRPRPRPQPEPRP | 0.0576
60 | RRIRIRPPRLPRPRPRPQPHPRP | -0.00842
61 | RRIRIRPPRLPRPRPRPQPNPRP | -0.267
62 | RRIRIRPPRLPRPRPRPQSFPRP | 0.0784
63 | RRIRIRPPRLPRPRPRPQSSPRP | 0.00983
64 | RRIRIRPPRLPRPRPRPQVEPRP | -0.127
65 | RRIRIRPPRLPRPRPRPQWAPRP | 0.0405
66 | RRIRIRPPRLPRPRPRPQWPPRP | 0.238
67 | RRIRIRPPRLPRPRPRPRCHPRP | -0.466
68 | RRIRIRPPRLPRPRPRPRDLPRP | 0.067
69 | RRIRIRPPRLPRPRPRPRGEPRP | 0.0673
70 | RRIRIRPPRLPRPRPRPRGKPRP | 0.086
71 | RRIRIRPPRLPRPRPRPRGPPRP | 0.81
72 | RRIRIRPPRLPRPRPRPRKLPRP | -0.529
73 | RRIRIRPPRLPRPRPRPRMFPRP | -0.125
74 | RRIRIRPPRLPRPRPRPRMLPRP | -0.177
75 | RRIRIRPPRLPRPRPRPRMYPRP | -0.33

Row | Sequence | shrunken log2 fold change
76 | RRIRIRPPRLPRPRPRPRPFPRP | -0.253
77 | RRIRIRPPRLPRPRPRPRPVPRP | 0.371
78 | RRIRIRPPRLPRPRPRPRQVPRP | 0.0368
79 | RRIRIRPPRLPRPRPRPRRPPRP | 0.233
80 | RRIRIRPPRLPRPRPRPRRTPRP | -0.0386
81 | RRIRIRPPRLPRPRPRPRTIPRP | -0.141
82 | RRIRIRPPRLPRPRPRPRTWPRP | -0.0123
83 | RRIRIRPPRLPRPRPRPRYVPRP | -0.45
84 | RRIRIRPPRLPRPRPRPSAPPRP | -0.00138
85 | RRIRIRPPRLPRPRPRPSAQPRP | -0.0807
86 | RRIRIRPPRLPRPRPRPSCAPRP | -0.249
87 | RRIRIRPPRLPRPRPRPSDTPRP | 0.00546
88 | RRIRIRPPRLPRPRPRPSDVPRP | -0.838
89 | RRIRIRPPRLPRPRPRPSEYPRP | -0.0435
90 | RRIRIRPPRLPRPRPRPSFGPRP | -0.389
91 | RRIRIRPPRLPRPRPRPSGEPRP | -0.246
92 | RRIRIRPPRLPRPRPRPSGKPRP | -0.146
93 | RRIRIRPPRLPRPRPRPSGSPRP | -0.17
94 | RRIRIRPPRLPRPRPRPSGYPRP | 0.00435
95 | RRIRIRPPRLPRPRPRPSHWPRP | -0.0355
96 | RRIRIRPPRLPRPRPRPSKFPRP | -0.245
97 | RRIRIRPPRLPRPRPRPSLLPRP | -0.374
98 | RRIRIRPPRLPRPRPRPSLNPRP | -0.595
99 | RRIRIRPPRLPRPRPRPSLSPRP | -0.692
100 | RRIRIRPPRLPRPRPRPSNIPRP | -0.207

Row | Sequence | shrunken log2 fold change
101 | RRIRIRPPRLPRPRPRPSNKPRP | -1.01
102 | RRIRIRPPRLPRPRPRPSNVPRP | -0.683
103 | RRIRIRPPRLPRPRPRPSPDPRP | 0.127
104 | RRIRIRPPRLPRPRPRPSPNPRP | -0.735
105 | RRIRIRPPRLPRPRPRPSQGPRP | -0.0729
106 | RRIRIRPPRLPRPRPRPSSNPRP | -0.313
107 | RRIRIRPPRLPRPRPRPSTNPRP | -0.573
108 | RRIRIRPPRLPRPRPRPSTSPRP | -0.492
109 | RRIRIRPPRLPRPRPRPSWCPRP | -0.532
110 | RRIRIRPPRLPRPRPRPSWEPRP | -0.621
111 | RRIRIRPPRLPRPRPRPSWYPRP | -0.604
112 | RRIRIRPPRLPRPRPRPSYFPRP | -0.83
113 | RRIRIRPPRLPRPRPRPSYQPRP | -1.32
114 | RRIRIRPPRLPRPRPRPTAKPRP | -0.184
115 | RRIRIRPPRLPRPRPRPTALPRP | 0.0424
116 | RRIRIRPPRLPRPRPRPTAVPRP | 0.028
117 | RRIRIRPPRLPRPRPRPTCIPRP | -0.193
118 | RRIRIRPPRLPRPRPRPTDIPRP | -0.359
119 | RRIRIRPPRLPRPRPRPTDLPRP | -0.289
120 | RRIRIRPPRLPRPRPRPTDTPRP | -1.86
121 | RRIRIRPPRLPRPRPRPTEEPRP | 0.146
122 | RRIRIRPPRLPRPRPRPTERPRP | -0.0197
123 | RRIRIRPPRLPRPRPRPTFIPRP | -0.677
124 | RRIRIRPPRLPRPRPRPTFVPRP | -0.582
125 | RRIRIRPPRLPRPRPRPTGCPRP | -0.0215

Row | Sequence | shrunken log2 fold change
126 | RRIRIRPPRLPRPRPRPTGWPRP | 0.19
127 | RRIRIRPPRLPRPRPRPTHFPRP | -0.0417
128 | RRIRIRPPRLPRPRPRPTHKPRP | 0.201
129 | RRIRIRPPRLPRPRPRPTHVPRP | -0.0979
130 | RRIRIRPPRLPRPRPRPTHYPRP | -0.392
131 | RRIRIRPPRLPRPRPRPTIVPRP | 0.119
132 | RRIRIRPPRLPRPRPRPTKTPRP | 0.12
133 | RRIRIRPPRLPRPRPRPTMEPRP | -0.523
134 | RRIRIRPPRLPRPRPRPTNHPRP | -0.587
135 | RRIRIRPPRLPRPRPRPTNIPRP | -0.237
136 | RRIRIRPPRLPRPRPRPTQHPRP | 0.0549
137 | RRIRIRPPRLPRPRPRPTQRPRP | 0.187
138 | RRIRIRPPRLPRPRPRPTSSPRP | -0.25
139 | RRIRIRPPRLPRPRPRPTTAPRP | -0.00422
140 | RRIRIRPPRLPRPRPRPTTCPRP | -0.447
141 | RRIRIRPPRLPRPRPRPTVAPRP | 0.334
142 | RRIRIRPPRLPRPRPRPTVCPRP | 0.312
143 | RRIRIRPPRLPRPRPRPTVTPRP | -0.303
144 | RRIRIRPPRLPRPRPRPTYGPRP | -0.548
145 | RRIRIRPPRLPRPRPRPVDDPRP | -0.0762
146 | RRIRIRPPRLPRPRPRPVDEPRP | -0.0203
147 | RRIRIRPPRLPRPRPRPVDFPRP | -0.133
148 | RRIRIRPPRLPRPRPRPVDHPRP | -0.498
149 | RRIRIRPPRLPRPRPRPVGFPRP | -0.182
150 | RRIRIRPPRLPRPRPRPVGHPRP | -0.0495
